B1: TPR t1 (parent)
chain: GACCAAUCUGCCCUCAGAGCUCGAGAACAUCUUCGGAUGCAGAGGAGGCAGGCUUCGGUGGCGCGAUAGCGCCAACGUCCUCAACCUCCAAUGCAUCCCACCACAUGAUGAUGCCUGAAGAGCCUUGGUUUUUUG

Variants of: B1
Assay: polymerase ribozyme fitness, log enrichment relative to wild type (log ratio); higher = more active; in vitro selection for triplet polymerase activity
In short: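 For each subunit of a heterodimeric triplet polymerase ribozyme, a mutant library was built by PCR and transcribed, then taken through a single in vitro selection round in triplicate. Selection involved annealing to a biotinylated primer, the partner subunit and triplets, incubation frozen at −7 °C, gel excision of extended constructs, capture on streptavidin beads and RT-PCR. Genotypes were retained after Illumina sequencing of inputs and outputs only with ≥10 input reads and ≥1 read in each output. Fitness is defined as the logarithm of a genotype's enrichment relative to wild-type enrichment, using inverse-variance-weighted averages across replicates, with the logarithm taken to base 2.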

| Variant | polymerase ribozyme fitness (log ratio) |
| --- | --- |
| GACCAAUCUGCCCUCAGAGCUCGAGAACAUCUUCGGAUGCAGAGGAGGCAGGCUUCGGUGACGCGAUAGCGCCAACGUCCUCAACCUCCAAUGCAUUCCACCACAUGAUGAUGUCUGAAGAGCCUUGGUUUUUUG [G61A C97U C114U] | -2.43 |
| GACCAAUCUGCCCUCAGAGCUCGAGAACAUCUUCGGAUGCAGAGGAGGCAGGCUUCGGUGACGCGAUAGCGCCAACGUCCUCAACCUCCAAUGCAUCCCACCACAUGAUGAUGCCAGAAGAGCCUUGGUUUUUUG [G61A U116A] | -2.68 |
| GACCAAUCUGCCCUCAGAGCUCGAGAACAUCUUCGGAUGCAGAGGAGGCAGGCUUCGGUGACGCGAUAGCGCCAACGUCCUCAACCUCCAAUGCAUCCCACCACAUGAUGAGGCCUGAAUACCCUUGGUUUUUUG [G61A U112G G120U G122C] | -1.64 |
| GACCAAUCUGCCCUCAGAGCUCGAGAACAUCUUCGGAUGCAGAGGAGGCAGGCUUCGGUGACGCGAUAGCGCCAACGUCCUCAACCUCCAAUGCAUCCCACCAUAUGAUGAUGCCUGAAGAGCCUUGGUUUUUUG [G61A C104U] | 0.241 |
| GACCAAUCUGCCCUCAGAGCUCGAGAACAUCUUCGGAUGCAGAGGAGGCAGGCUUCGGUGACGCGAUAGCGCCAACGUCCUCAACCUCCAAUGCAUCCCACCACAUGAUGAUGCCGGAAGAGCCUUGCUUUUUUG [G61A U116G G128C] | -4.66 |
| GACCAAUCUGCCCUCAGAGCUCGAGAACAUCUUCGGAUGCAGAGGAGGCAGGCUUCGGUGACGCGAUAGCGCCAACGGCCUCAACCUCCAAUGCAUCCCACCACAUGAUGAUGCCUGAAAAGCCUUGGUUUUUUG [G61A U78G G120A] | 0.458 |
| GACCAAUCUGCCCUCAGAGCUCGAGAACAUCUUCGGAUGCAGAGGAGGCAGGCUUCGGUGACGCGAUAGCGCCAACGUCCUCAACCUCCAAUGCAUCCCACCACAUGAUGAUGCCUGAAGAGCCUUGGUUUUAUG [G61A U133A] | -0.418 |
| GACCAAUCUGCCCUCAGAGCUCGAGAACAUCUUCGGAUGCAGAGGAGGCAGGCUUCGGUGACGCGAUAGCGCCAACGCCCUCAAUCUCCAAUGCACCCCAUCACAUGAGGAUGCCUGAAGAGCCUUGGUUUUUUG [G61A U78C C85U U96C C101U U109G] | -5.66 |
| GACCAAUCUGCCCUCAGAGCUCGAGAACAUCUUCGGAUGCAGAGGAGGCAGGCUUCGGUGCCGCGAUAGCGCCAACGUCCUCCACCUCUAAUGCAUCCCACCACAUGAUGAUGCCUGAAGAGCCUUGGUUUUUUG [G61C A83C C89U] | -2.95 |
| GACCAAUCUGCCCUCAGAGCUCGAGAACAUCUUCGGAUGCAGAGGAGGCAGGCUUCGGUGACGCGAUAGCGCCAACGUCCGCAACCUCCAAUGCAUCCCACCACUUGAUGAGGCCUGAAGAGCCUUGGUUUUUUG [G61A U81G A105U U112G] | -5.6 |
| GACCAAUCUGCCCUCAGAGCUCGAGAACAUCUUCGGAUGCAGAGGAGGCAGGCUUCGGUGCCGCGAUAGCGCCCACGUCCUCAAUCUCCAAUGCAUCCCACCACAUGAUGAUGCCUGAAGAGCCUUGGUUUUUUG [G61C A74C C85U] | -5.35 |
| GACCAAUCUGCCCUCAGAGCUCGAGAACAUCUUCGGAUGCAGAGGAGGCAGGCUUCGGUGACGCGAUAGCGCCAACGUCCUCAACCUCCAAUGCAUCCCACCACAUUAUGAUGCCUGAAGAGCCUUGGUUUUUUG [G61A G107U] | -4.9 |
| GACCAAUCUGCCCUCAGAGCUCGAGAACAUCUUCGGAUGCAGAGGAGGCAGGCUUCGGUGACGCGAUAGCGCCAACGUCCUCAACCUCCAAUGCAUCCCACCACAUGAUGAUGCCUGAAGAGGCUUGGUUUUUUG [G61A C123G] | 1.69 |
| GACCAAUCUGCCCUCAGAGCUCGAGAACAUCUUCGGAUGCAGAGGAGGCAGGCUUCGGUGACGCGAUAGCGCCAACGUCCUCAACCUCCAAUGUAUCCCACCACAUGAUGAAGCCUGAAGAGCCUUGGUUUUUUG [G61A C94U U112A] | 1.31 |
| GACCAAUCUGCCCUCAGAGCUCGAGAACAUCUUCGGAUGCAGAGGAGGCAGGCUUCGGUGACGCGAUAGCGCCAACGUCCUCAACCUCCAAUGCAUUCCACCACAUGAUGAUGCCUGAAGAGCCUUGGUUUUUUG [G61A C97U] | -0.149 |
| GACCAAUCUGCCCUCAGAGCUCGAGAACAUCUUCGGAUGCAGAGGAGGCAGGCUUCGGUGCCGCGAUAGCGCCAACGUCCUCGACCUCCAAUGCAUCCCACCACAUGAUGAUGCCUGAAGAGCCUUGGUUUUUUG [G61C A83G] | -3.02 |
| GACCAAUCUGCCCUCAGAGCUCGAGAACAUCUUCGGAUGCAGAGGAGGCAGGCUUCGGUGACGCGAUAGCGCCAACGUCCUCAACCUCCAAUGCAUCCCACCACAUGAUGAUGCCUUAAGAGCCUUGGUUUUUUG [G61A G117U] | -2.02 |
| GACCAAUCUGCCCUCAGAGCUCGAGAACAUCUUCGGAUGCAGAGGAGGCAGGCUUCGGUGACGCGAUAGCGCCAACGUCCUCAACCUCCAAUGCAUCCCACCACAUGAUUAUGCCUGAAGAGCCUUGGUUUAUUG [G61A G110U U132A] | -0.611 |
| GACCAAUCUGCCCUCAGAGCUCGAGAACAUCUUCGGAUGCAGAGGAGGCAGGCUUCGGUGACGCGAUAGCGCCAACGUCCUCAACCUCCAAUGCAUCCCACCACAUGAUGAUGCCUGAAGAGCCUUGGUCUUUUG [G61A U130C] | 0.204 |
| GACCAAUCUGCCCUCAGAGCUCGAGAACAUCUUCGGAUGCAGAGGAGGCAGGCUUCGGUGACGCGAUAGCGCCAACGUCCUCAACCUCCAAUGCAUCCCACCACAUGAUGAUGCCUGAAGAGCCUUCGUUUUUUG [G61A G127C] | -0.956 |
| GACCAAUCUGCCCUCAGAGCUCGAGAACAUCUUCGGAUGCAGAGGAGGCAGGCUUCGGUGACGCGAUAGCGCCAACGCCCUCAACCUCCAAUGCAUCCCACCACAUGAUGAUGCCUGAAGAGCCUUGGUUUUUUG [G61A U78C] | -0.183 |

| Variant | polymerase ribozyme fitness (log ratio) |
| --- | --- |
| GACCAAUCUGCCCUCAGAGCUCGAGAACAUCUUCGGAUGCAGAGGAGGCAGGCUUCGGUGACGCGAUAGCGCCAACGUCCUCAACCUCCAAUGCAUCCCACCACAUGAAGAUGCCUGAAGAGCCUUGGUUUUUUG [G61A U109A] | -5.19 |
| GACCAAUCUGCCCUCAGAGCUCGAGAACAUCUUCGGAUGCAGAGGAGGCAGGCUUCGGUGACGCGAUAGCGCCAACGUCCUCAACCUCCAAUGCAUCCCACCACAUGACGAUGCCUGAAGAGCCUUGGUUUUUUG [G61A U109C] | -2.02 |
| GACCAAUCUGCCCUCAGAGCUCGAGAACAUCUUCGGAUGCAGAGGAGGCAGGCUUCGGUGACGCGAUAGCGCCAACGUCCUCAACCUCCAAUGCAUCCCACCACAUGAUGAAGCCUGAAGAGCUUUGGUUUUUUG [G61A U112A C124U] | 1.83 |
| GACCAAUCUGCCCUCAGAGCUCGAGAACAUCUUCGGAUGCAGAGGAGGCAGGCUUCGGUGACGCGAUAGCGCCAACGUCCUCAACCUCCAAUGCAUCCCACCACAUGAUGAAGCCUGAAGAGCCUUGGUUUUUUG [G61A U112A] | 1.31 |
| GACCAAUCUGCCCUCAGAGCUCGAGAACAUCUUCGGAUGCAGAGGAGGCAGGCUUCGGUGACGCGAUAGCGCCAACGUCCUCAACCUCCAAUGCAUCCCACCACAUGAUGAGGCCUGAAGAGCCUUGGUUUUUUG [G61A U112G] | 0.603 |
| GACCAAUCUGCCCUCAGAGCUCGAGAACAUCUUCGGAUGCAGAGGAGGCAGGCUUCGGUGACGCGAUAGCGCCAACGUCCUCAACCUCCAAUGCAUCCCACCACAUGAUGAUGCCUGAAGAGCCUUGUUUUUUUG [G61A G128U] | -2.15 |
| GACCAAUCUGCCCUCAGAGCUCGAGAACAUCUUCGGAUGCAGAGGAGGCAGGCUUCGGUGACGCGAUAGCGCCAACGUCCUCAACCUGCAAUGCAUCCCACCACAUGAUGAUGCCUGAAGAGCCUUGGUUUUUUG [G61A C88G] | -0.136 |
| GACCAAUCUGCCCUCAGAGCUCGAGAACAUCUUCGGAUGCAGAGGAGGCAGGCUUCGGUGACGCGAUAGCGCCAACGUCCUCAACCUCCAAUGCAUCCCACCACAUGAUGAUUCCUGAAGAGCCUUGGUUUUUUG [G61A G113U] | -2.69 |
| GACCAAUCUGCCCUCAGAGCUCGAGAACAUCUUCGGAUGCAGAGGAGGCAGGCUUCGGUGACGCGAUAGCGCCAACGUCCUCAACCUCCAAAGCAUCCCACCACAUGAUGAUGCCUGAAGAGACUUUGUUUUUUG [G61A U92A C123A G127U] | -1.55 |
| GACCAAUCUGCCCUCAGAGCUCGAGAACAUCUUCGGAUGCAGAGGAGGCAGGCUUCGGUGACGCGAUAGCGCCAACGGCCUCAUCAUCCAAUGCAUCCCACCACAUGAUGAUGCCUGAAGAGCCUUGGUUUUUUG [G61A U78G A84U C86A] | -1.71 |
| GACCAAUCUGCCCUCAGAGCUCGAGAACAUCUUCGGAUGCAGAGGAGGCAGGCUUCGGUGACGCGAUAGCGCCAACGUCCUCAACCUCAAAUGCAUCCCACCACAUGAUGAUGCCUGAAGAGCCUUGGUUUUUUG [G61A C89A] | -1.25 |
| GACCAAUCUGCCCUCAGAGCUCGAGAACAUCUUCGGAUGCAGAGGAGGCAGGCUUCGGUGACGCGAUAGCGCCAACGUCCUCAACCUCGAAUGCAUCCCAGCACAUGAUGAUGCCUGAAGGGCCUUGGUUUUUUG [G61A C89G C101G A121G] | -0.932 |
| GACCAAUCUGCCCUCAGAGCUCGAGAACAUCUUCGGAUGCAGAGGAGGCAGGCUUCGGUGACGCGAUAGCGCCAACGUCCUCAACCUACAAUGCAUCCCACCACAUGAUGAUGGCCGAAGAACCUUGGUUUUUUG [G61A C88A C114G U116C G122A] | -5.26 |
| GACCAAUCUGCCCUCAGAGCUCGAGAACAUCUUCGGAUGCAGAGGAGGCAGGCUUCGGUGACGCGAUAGCGCCAACGUCCUCAACCUCCAAUGCAUCCCAUCACAUGAUGAUGCCUGAAGAGCCUUGGUUUUUUG [G61A C101U] | -1.21 |
| GACCAAUCUGCCCUCAGAGCUCGAGAACAUCUUCGGAUGCAGAGGAGGCAGGCUUCGGUGACGCGAUAGCGCCAACGUCCUCAACCUCCAAUGCAUCCCACCACAUGAUGAUGCCUGAAGAGCCUUGGUUUUUUA [G61A G135A] | -1.88 |
| GACCAAUCUGCCCUCAGAGCUCGAGAACAUCUUCGGAUGCAGAGGAGGCAGGCUUCGGUGCCGCGAUAGCGCCAACGUCCUCAACCUCCAAUGCAUCCCACCACAUGAUGAUGCCUGAAGAGCCUUGGUUUUUUG [G61C] | -1.63 |
| GACCAAUCUGCCCUCAGAGCUCGAGAACAUCUUCGGAUGCAGAGGAGGCAGGCUUCGGUGACGCGAUAGCGCCAACGUCCUCAACCUCCAAUGCAUCCCACCACAUGAUGAUACCUGAAGAGCCUUGGUGUUUUG [G61A G113A U130G] | -1.32 |
| GACCAAUCUGCCCUCAGAGCUCGAGAACAUCUUCGGAUGCAGAGGAGGCAGGCUUCGGUGACGCGAUAGCGCCAACGUCCUCAACCUCCAAUACAUCCCACCACAUGAUGAUGGCUGAAGAGCCUUGGUUUUUUG [G61A G93A C114G] | -2.13 |
| GACCAAUCUGCCCUCAGAGCUCGAGAACAUCUUCGGAUGCAGAGGAGGCAGGCUUCGGUGACGCGAUAGCGCCAACGGCCUCAAUCUCCCAUGCAUCCCACCACAUGAUGAUGCCUGAAGAGCCUUGGUUUUUUG [G61A U78G C85U A90C] | -2.22 |
| GACCAAUCUGCCCUCAGAGCUCGAGAACAUCUUCGGAUGCAGAGGAGGCAGGCUUCGGUGACGCGAUAGCGCCAACGUCCUCAACCUCCAAUGCAUCCCACCACAUGAUAAUGCCUGAAGAGCCUUGGUUUUUUG [G61A G110A] | -0.516 |
| GACCAAUCUGCCCUCAGAGCUCGAGAACAUCUUCGGAUGCAGAGGAGGCAGGCUUCGGUGCCGCGAUAGCGCCAACGUCCUCAACCUCCUAUACAUCCCACCACAUGAUGAUGCCUGAAGAGCCUUGGUUUUUUG [G61C A90U G93A] | -4.85 |
